B1: KNL1 residues 2,026–2,342 [human] / Mis12 complex (Mis12C), full length: MIS12, PMF1, NSL1, DSN1 [human] (parent complex)
chain 1: SAQNEREKLQIKIDEMDKILKKIDNCLTEMETETKNLEDEEKNNPVEEWDSEMRAAEKELEQLKTEEEELQRNLLELEVQKEQTLAQIDFMQKQRNRTEELLDQLSLSEWDVVEWSDDQAVFTFVYDTIQLTITFEESVVGFPFLDKRYRKIVDVNFQSLLDEDQAPPSSLLVHKLIFQYVEEKESWKKTCTTQHQLPKMLEEFSLVVHHCRLLGEEIEYLKRWGPNYNLMNIDINNNELRLLFSSSAAFAKFEITLFLSAYYPSVPLPSTIQNHVGNTSQDDIATILSKVPLENNYLKNVVKQIYQDLFQDCHFYH
chain 2: MSVDPMTYEAQFFGFTPQTCMLRIYIAFQDYLFEVMQAVEQVILKKLDGIPDCDISPVQIRKCTEKFLCFMKGHFDNLFSKMEQLFLQLILRIPSNILLPEDKCKETPYSEEDFQHLQKEIEQLQEKYKTELCTKQALLAELEEQKIVQAKLKQTLTFFDELHNVGRDHGTSDFRESLVSLVQNSRKLQNIRDNVEKESKRLKIS
chain 3: MAEASSANLGSGCEEKRHEGSSSESVPPGTTISRVKLLDTMVDTFLQKLVAAGSYQRFTDCYKCFYQLQPAMTQQIYDKFIAQLQTSIREEISDIKEEGNLEAVLNALDKIVEEGKVRKEPAWRPSGIPEKDLHSVMAPYFLQQRDTLRRHVQKQEAENQQLADAVLAGRRQVEELQLQVQAQQQAWQALHREQRELVAVLREPE
chain 4: MAGSPELVVLDPPWDKELAAGTESQALVSATPREDFRVRCTSKRAVTEMLQLCGRFVQKLGDALPEEIREPALRDAQWTFESAVQENISINGQAWQEASDNCFMDSDIKVLEDQFDEIIVDIATKRKQYPRKILECVIKTIKAKQEILKQYHPVVHPLDLKYDPDPAPHMENLKCRGETVAKEISEAMKSLPALIEQGEGFSQVLRMQPVIHLQRIHQEVFSSCHRKPDAKPENFITQIETTPTETASRKTSDMVLKRKQTKDCPQRKWYPLRPKKINLDT
chain 5: MTSVTRSEIIDEKGPVMSKTHDHQLESSLSPVEVFAKTSASLEMNQGVSEERIHLGSSPKKGGNCDLSHQERLQSKSLHLSPQEQSASYQDRRQSWRRASMKETNRRKSLHPIHQGITELSRSISVDLAESKRLGCLLLSSFQFSIQKLEPFLRDTKGFSLESFRAKASSLSEELKHFADGLETDGTLQKCFEDSNGKASDFSLEASVAEMKEYITKFSLERQTWDQLLLHYQQEAKEILSRGSTEAKITEVKVEPMTYLGSSQNEVLNTKPDYQKILQNQSKVFDCMELVMDELQGSVKQLQAFMDESTQCFQKVSVQLGKRSMQQLDPSPARKLLKLQLQNPPAIHGSGSGSCQ

Variants of: B1
Assay: ITC; syringe KNL1^M2; cell Mis12C^WT; parent: 1.56 nM

Q: Which Kd does the source give for chain 1 SAQNEREKLQIKIDEMDKILKKIDNCLTEMETETKNLEDEEKNNPVEEWDSEMRAAEKELEQLKTEEEELQRNLLELEVQKEQTLAQIDFMQKQRNRTEELLDQLSLSEWDVVEWSDDQAVFTFVYDTIQLTITFEESVVGFPFLDKRYRKIVDVNFQSLLDEDQAPPSSLLVHKLIFQYVEEKESWKKTCTTQHQLPKMLEEFSLVVHHCRLLGEEIEYLKRWGPNYNLANIDINNNELRLLFSSWAAAAEFEITLFLSAYYPSVPLPSTIQNHVGNTSQDDIATILSKVPLENNYLKNVVKQIYQDLFQDCHFYH [chain 1 M231A, chain 1 S247W, chain 1 F250A, chain 1 K252E] here?
A: The Kd was 109 nM.

Variants of: B1
Assay: ITC; syringe KNL1^M1; cell Mis12C^WT; parent: 1.56 nM

Q: For chain 1 SAQNEREKLQIKIDEMDKILKKIDNCLTEMETETKNLEDEEKNNPVEEWDSEMRAAEKELEQLKTEEEELQRNLLELEVQKEQTLAQIDFMQKQRNRTEELLDQLSLSEWDVVEWSDDQAVFTFVYDTIQLTITFEESVVGFPFLDKRYRKIVDVNFQSLLDEDQAPPSSLLVHKLIFQYVEEKESWKKTCTTQHQLPKMLEEFSLVVHHCRLLGEEIEYLKRWGPNYNLANIDINNNELRLLFSSWAAAAAFEITLFLSAYYPSVPLPSTIQNHVGNTSQDDIATILSKVPLENNYLKNVVKQIYQDLFQDCHFYH [chain 1 M231A, chain 1 S247W, chain 1 F250A, chain 1 K252A], which Kd is on record?
A: The Kd was 140 nM.

Variants of: B1
Assay: ITC; syringe KNL1^WT; cell Mis12C^M2; parent: 1.56 nM

Q: For chain 3 MAEASSANLGSGCEEKRHEGSSSESVPPGTTISRVKLLDTMVDTFLQKLVAAGSYQRFTDCYKCFYQLQPAMTQQIYDKFIAQLQTSIREEISDIKEEGNLEAVLNALDKIVEEGKVRKEPAWRPSGIPEKDLHSVMAPYFLQQRDTLRRHVQKQEAENQQLADAVLAGRRQVEELQLQVQAQQQAWQALHREQEELLAVLREPE chain 5 MTSVTRSEIIDEKGPVMSKTHDHQLESSLSPVEVFAKTSASLEMNQGVSEERIHLGSSPKKGGNCDLSHQERLQSKSLHLSPQEQSASYQDRRQSWRRASMKETNRRKSLHPIHQGITELSRSISVDLAESKRLGCLLLSSFQFSIQKLEPFLRDTKGFSLESFRAKASSLSEELKHFADGLETDGTLQKCFEDSNGKASDFSLEASVAEMKEYITKFSLERQTWDQLLLHYQQEAKEILSRGSTEAKITEVKVEPMTYLGSSQNEVLNTKPDYQKILQNQSKVFDCMEFVMDELQGSVKQLQAFMDESTQCFQKVSVQLGKRSMQQLDPSPARKLLKLQLQNPPAIHGSGSGSCQ [chain 3 R195E, chain 3 V198L, chain 5 L290F], which Kd is on record?
A: Its Kd is 24.8 nM.

Variants of: B1
Assay: ITC; syringe KNL1^WT; cell Mis12C^M1; parent: -12

Q: For chain 3 MAEASSANLGSGCEEKRHEGSSSESVPPGTTISRVKLLDTMVDTFLQKLVAAGSYQRFTDCYKCFYQLQPAMTQQIYDKFIAQLQTSIREEISDIKEEGNLEAVLNALDKIVEEGKVRKEPAWRPSGIPEKDLHSVMAPYFLQQRDTLRRHVQKQEAENQQLADAVLAGRRQVEELQLQVQAQQQAWQALHREQAELLAVLREPE chain 5 MTSVTRSEIIDEKGPVMSKTHDHQLESSLSPVEVFAKTSASLEMNQGVSEERIHLGSSPKKGGNCDLSHQERLQSKSLHLSPQEQSASYQDRRQSWRRASMKETNRRKSLHPIHQGITELSRSISVDLAESKRLGCLLLSSFQFSIQKLEPFLRDTKGFSLESFRAKASSLSEELKHFADGLETDGTLQKCFEDSNGKASDFSLEASVAEMKEYITKFSLERQTWDQLLLHYQQEAKEILSRGSTEAKITEVKVEPMTYLGSSQNEVLNTKPDYQKILQNQSKVFDCMEFVMDELQGSVKQLQAFMDESTQCFQKVSVQLGKRSMQQLDPSPARKLLKLQLQNPPAIHGSGSGSCQ [chain 3 R195A, chain 3 V198L, chain 5 L290F], which dG is on record?
A: Its dG is -10.

— publication PMC11189300 (2024)
